Test results published in publication PMC11696170.
Read-outs that look alike come from different tables or passages of the source.

Tests used:
[1] = biological target: AuraA, dimethylallyl tryptophan synthase (DMATS) family prenyltransferase (Penicillium solitum HDN11-131)
[2] = biological target: AuraA, dimethylallyl tryptophan synthase (DMATS) family prenyltransferase (Penicillium solitum HDN11-131); test: cryo-EM structure

stoichiometry N [1]: 4 | stoichiometry N [2]: 4
Substance: AuraA, dimethylallyl tryptophan synthase (DMATS) family prenyltransferase (enzyme)
